The values below are quoted from earlier work in PMC8557391.

By Kd is commonly meant the constant that tells how readily two partners part at equilibrium.

The series deals with Keap1 (Homo sapiens) (UniProt Q14145). Put plainly: FP.
UniProt Q14145, sequence (Q14145 whole entry): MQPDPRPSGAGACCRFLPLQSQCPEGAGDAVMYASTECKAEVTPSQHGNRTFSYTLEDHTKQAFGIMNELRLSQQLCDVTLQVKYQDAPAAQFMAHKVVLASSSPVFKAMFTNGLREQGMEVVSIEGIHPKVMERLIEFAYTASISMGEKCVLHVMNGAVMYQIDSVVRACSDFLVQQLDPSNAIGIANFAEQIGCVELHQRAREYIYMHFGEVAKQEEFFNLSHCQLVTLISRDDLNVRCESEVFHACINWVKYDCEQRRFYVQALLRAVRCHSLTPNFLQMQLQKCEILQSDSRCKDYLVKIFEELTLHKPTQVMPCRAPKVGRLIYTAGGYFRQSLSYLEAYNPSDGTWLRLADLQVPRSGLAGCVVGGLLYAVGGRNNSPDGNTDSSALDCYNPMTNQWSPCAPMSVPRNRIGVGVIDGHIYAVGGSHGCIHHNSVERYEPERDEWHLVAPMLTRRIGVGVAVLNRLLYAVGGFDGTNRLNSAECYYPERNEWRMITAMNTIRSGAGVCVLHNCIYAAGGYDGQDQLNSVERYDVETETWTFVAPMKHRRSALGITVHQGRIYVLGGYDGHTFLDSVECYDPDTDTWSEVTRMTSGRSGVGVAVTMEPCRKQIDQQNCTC

On to Nrf2 9mer peptide (from UniProt Q16236), for which the Kd was 0.054 µM. On to “Nrf2 10mer peptide (from UniProt Q16236)”, for which the Kd is 0.051 µM.
